Assay results from US20040181828A1 (E I DUPONT DE NEMOURS, published 2004).

Molecular target: T1, ADGal4/rDr1 fusion protein (Gal4 activation domain fused to rice Dr1, encoded by pADGal4::rDr1) (rice)
T1 construct: Expressed in yeast YRG-2 for the two-hybrid assay; Coding region of rice Dr1 (EcoR I/Sma I fragment) fused in frame
T1 chain: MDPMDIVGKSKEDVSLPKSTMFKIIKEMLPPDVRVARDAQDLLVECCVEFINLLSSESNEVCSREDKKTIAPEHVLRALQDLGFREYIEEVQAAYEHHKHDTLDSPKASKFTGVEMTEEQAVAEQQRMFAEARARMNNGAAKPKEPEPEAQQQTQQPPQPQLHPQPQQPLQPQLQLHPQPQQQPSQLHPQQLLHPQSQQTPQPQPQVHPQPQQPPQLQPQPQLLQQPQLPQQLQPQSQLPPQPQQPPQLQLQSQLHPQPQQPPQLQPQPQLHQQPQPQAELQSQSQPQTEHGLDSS
Test: yeast two-hybrid (Gal4 system, YRG-2), growth on medium lacking Trp, Leu and His
From the text: USA 88: 9578-9582). The rice Dr1 and DRAP1 cDNAs described in Example 5 were fused with pAD-Gal4 and pBD-Gal4 to generate pADGal4::rDr1 and pBDGal4::rDRAP1 constructs respectively. The EcoR I and Sma I fragment containing coding region of rice Dr1 was cloned into pAD-Gal4 EcoR I and Sma I sites to generate pADGal4::rDr1. The Mfe I and Pst I fragment containing coding region of rice DRAP1 was cloned into pBD-Gal4 EcoR I and Pst I sites to generate pBDGal4::rDRAP1. The pADGal4::rDr1 and pBDGal4::rDRAP1 were transformed independently and co-transformed into Stratagene's YRG-2 yeast strain (Stratagene, San Diego, Calif.). Competent YRG-2 cells were prepared according to the method of Eible (1992) Biotechniques 13:18-20) and transformed with one microgram of DNA added to a […] aliquot of competent yeast cells. A mixture containing 240 PI 50% PEG (MW 3350), 36 μl 1 M lithium acetate, and 50 μg of salmon sperm DNA was added to the yeast-DNA mixture. After mixing the mixture was incubated at 30° C. for 30 minutes and heat shocked at 42° C. for 20 minutes. Maximum of 200 μl of transformation mixture was plated on selective plates. For initial plating transformants containing the pADGal4::rDr1 construct (trp+), were plated on selection medium lacking tryptophan. […]

B1: Truncated rice DRAP1 (N-terminal deletion of 63 amino acids) fused to Gal4 DNA binding domain, encoded by pBDGal4::rDRAP1NN64 (other, not shown: large carriers)
chain: SFHLKQCVRRYSSFDFLTEVVNKVPDLGGADSCGDDRALPRRRKALPNGSDPENEESRSSKMAVRSANISPRGRGRGRGRGRGRPPTKRKEVGYVQFEDESSMFADQGEALPGEETVPETIHGTESVPPSTHPPAEAPSAAEIPAPNPKVEEAKNDDHQPDWPMPDAIGNIGVGPSGFGHLTVQVDEDEDYDNED
notes: Lacks the N-terminal 63 amino acids of rice DRAP1
Q: Does B1 bind?
A: Result: no binding
